# Assay results taken from the RNAGym collection of RNA variant scans (doi:10.1093/nar/gkz1192).
# B1: CPEB3 Ribozyme (parent)
# chain: UAACAGGGGGCCACAGCAGAAGCGUUCACGUCGCAGCCCCUGUCAGAUUCUGGUGAAUCUGCGAAUUCUGCUGUAUAUCUC
# Variants of: B1
# Assay: self-cleavage, relative activity (ratio to wild type); higher = more cleavage; in vitro, sequencing
# Procedure, shortened: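 For each CPEB3 ribozyme variant, relative activity is its cleaved/total read fraction divided by the unmutated ribozyme's. Barcoded error-prone PCR libraries were transcribed by T7 RNA polymerase (5 hours, 37°C) and held in DNase I for 15 min before an EDTA stop, with cleavage occurring throughout. Template-switching reverse transcription and Illumina sequencing were used to read the RNAs. A 5-read minimum applied, and results are the mean of three batches.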
row,Variant,self-cleavage
1,UAACAGGGGGCCACAGCAGAAGCGUUCACGUCGCAGCCCCUGUCAGAUUCUGGUGAAUCUGGGCAUUCUGCUGUAUAUCUC [C62G A64C],0.19
2,UAACAGGGGGCCACAGCAGAAGCGUUCACGUCGCAGCCCCUGUCAGAUUCUGGUGAAUCUGGGUAUUCUGCUGUAUAUCUC [C62G A64U],0.32
3,UAACAGGGGGCCACAGCAGAAGCGUUCACGUCGCAGCCCCUGUCAGAUUCUGGUGAAUCUGGGGAUUCUGCUGUAUAUCUC [C62G A64G],0.22
4,UAACAGGGGGCCACAGCAGAAGCGUUCACGUCGCAGCCCCUGUCAGAUUCUGGUGAAUCUGGGAAUUCUGCUGUAUAUAUC [C62G C79A],0.24
5,UAACAGGGGGCCACAGCAGAAGCGUUCACGUCGCAGCCCCUGUCAGAUUCUGGUGAAUCUGGGAUUUCUGCUGUAUAUCUC [C62G A65U],0.27
6,UAACAGGGGGCCACAGCAGAAGCGUUCACGUCGCAGCCCCUGUCAGAUUCUGGUGAAUCUGAGAAUUCUGCUGUACAUCUC [C62A U76C],0.17
7,UAACAGGGGGCCACAGCAGAAGCGUUCACGUCGCAGCCCCUGUCAGAUUCUGGUGAAUCUGUGAAUUCUGCUUUAUAUCUC [C62U G73U],0.21
8,UAACAGGGGGCCACAGCAGAAGCGUUCACGUCGCAGCCCCUGUCAGAUUCUGGUGAAUCUGUGAAUUCUGCUAUAUAUCUC [C62U G73A],0.16
9,UAACAGGGGGCCACAGCAGAAGCGUUCACGUCGCAGCCCCUGUCAGAUUCUGGUGAAUCUGAGAAUACUGCUGUAUAUCUC [C62A U67A],0.32
10,UAACAGGGGGCCACAGCAGAAGCGUUCACGUCGCAGCCCCUGUCAGAUUCUGGUGAAUCUGGGAAUUCUGCUGUACAUCUC [C62G U76C],0.29
11,UAACAGGGGGCCACAGCAGAAGCGUUCACGUCGCAGCCCCUGUCAGAUUCUGGUGAAUCUGUGAAUUCUGCUGUAUAUGUC [C62U C79G],0.2
12,UAACAGGGGGCCACAGCAGAAGCGUUCACGUCGCAGCCCCUGUCAGAUUCUGGUGAAUCUGAGAAAUCUGCUGUAUAUCUC [C62A U66A],0.48
13,UAACAGGGGGCCACAGCAGAAGCGUUCACGUCGCAGCCCCUGUCAGAUUCUGGUGAAUCUGAGAACUCUGCUGUAUAUCUC [C62A U66C],0.25
14,UAACAGGGGGCCACAGCAGAAGCGUUCACGUCGCAGCCCCUGUCAGAUUCUGGUGAAUCUGAGAAUUCUGCUGUAUAUCCC [C62A U80C],0.34
15,UAACAGGGGGCCACAGCAGAAGCGUUCACGUCGCAGCCCCUGUCAGAUUCUGGUGAAUCUGAGAAUUCUGCUGUAUAUCAC [C62A U80A],0.1
16,UAACAGGGGGCCACAGCAGAAGCGUUCACGUCGCAGCCCCUGUCAGAUUCUGGUGAAUCUGUGAAUUCUGCUGUCUAUCUC [C62U A75C],0.44
17,UAACAGGGGGCCACAGCAGAAGCGUUCACGUCGCAGCCCCUGUCAGAUUCUGGUGAAUCUGUGAAUUCUGCUGUGUAUCUC [C62U A75G],0.22
18,UAACAGGGGGCCACAGCAGAAGCGUUCACGUCGCAGCCCCUGUCAGAUUCUGGUGAAUCUGAGAAUUCCGCUGUAUAUCUC [C62A U69C],0.34
19,UAACAGGGGGCCACAGCAGAAGCGUUCACGUCGCAGCCCCUGUCAGAUUCUGGUGAAUCUGAGAAUUCGGCUGUAUAUCUC [C62A U69G],0.33
20,UAACAGGGGGCCACAGCAGAAGCGUUCACGUCGCAGCCCCUGUCAGAUUCUGGUGAAUCUGAGAAUUCAGCUGUAUAUCUC [C62A U69A],0.31
21,UAACAGGGGGCCACAGCAGAAGCGUUCACGUCGCAGCCCCUGUCAGAUUCUGGUGAAUCUGCAAAUUCUGCUGUAUAUCUC [G63A],0.87
22,UAACAGGGGGCCACAGCAGAAGCGUUCACGUCGCAGCCCCUGUCAGAUUCUGGUGAAUCUGUGAAUUUUGCUGUAUAUCUC [C62U C68U],0.21
23,UAACAGGGGGCCACAGCAGAAGCGUUCACGUCGCAGCCCCUGUCAGAUUCUGGUGAAUCUGUGAAUUCUGCUGUAAAUCUC [C62U U76A],0.25

row,Variant,self-cleavage
1,UAACAGGGGGCCACAGCAGAAGCGUUCACGUCGCAGCCCCUGUCAGAUUCUGGUGAAUCUGUGAAUUCUGCUGUACAUCUC [C62U U76C],0.33
2,UAACAGGGGGCCACAGCAGAAGCGUUCACGUCGCAGCCCCUGUCAGAUUCUGGUGAAUCUGUGAAUUCCGCUGUAUAUCUC [C62U U69C],0.32
3,UAACAGGGGGCCACAGCAGAAGCGUUCACGUCGCAGCCCCUGUCAGAUUCUGGUGAAUCUGUGAAUUCAGCUGUAUAUCUC [C62U U69A],0.38
4,UAACAGGGGGCCACAGCAGAAGCGUUCACGUCGCAGCCCCUGUCAGAUUCUGGUGAAUCUGAGAAUUCUGCUGUAUAACUC [C62A U78A],0.16
5,UAACAGGGGGCCACAGCAGAAGCGUUCACGUCGCAGCCCCUGUCAGAUUCUGGUGAAUCUGAGAAUUCUGCUGUAUACCUC [C62A U78C],0.16
6,UAACAGGGGGCCACAGCAGAAGCGUUCACGUCGCAGCCCCUGUCAGAUUCUGGUGAAUCUGAGAAUUCUGCUAUAUAUCUC [C62A G73A],0.24
7,UAACAGGGGGCCACAGCAGAAGCGUUCACGUCGCAGCCCCUGUCAGAUUCUGGUGAAUCUGGGAAUUCUGUUGUAUAUCUC [C62G C71U],0.38
8,UAACAGGGGGCCACAGCAGAAGCGUUCACGUCGCAGCCCCUGUCAGAUUCUGGUGAAUCUGAAAAUUCUGCUGUAUAUCUC [C62A G63A],0.25
9,UAACAGGGGGCCACAGCAGAAGCGUUCACGUCGCAGCCCCUGUCAGAUUCUGGUGAAUCUGGGAAUUCUGCUGUAUUUCUC [C62G A77U],0.19
10,UAACAGGGGGCCACAGCAGAAGCGUUCACGUCGCAGCCCCUGUCAGAUUCUGGUGAAUCUGGGAAUUCUGCUGUAUAUCAC [C62G U80A],0.25
11,UAACAGGGGGCCACAGCAGAAGCGUUCACGUCGCAGCCCCUGUCAGAUUCUGGUGAAUCUGUGAAUUCUGCUGUAUGUCUC [C62U A77G],0.15
12,UAACAGGGGGCCACAGCAGAAGCGUUCACGUCGCAGCCCCUGUCAGAUUCUGGUGAAUCUGUGAAUUCUGCUGUAUUUCUC [C62U A77U],0.17
13,UAACAGGGGGCCACAGCAGAAGCGUUCACGUCGCAGCCCCUGUCAGAUUCUGGUGAAUCUGUGAAUUCUGCUGUAUCUCUC [C62U A77C],0.19
14,UAACAGGGGGCCACAGCAGAAGCGUUCACGUCGCAGCCCCUGUCAGAUUCUGGUGAAUCUGUGAAUUCUGCUGUAUAUCCC [C62U U80C],0.28
15,UAACAGGGGGCCACAGCAGAAGCGUUCACGUCGCAGCCCCUGUCAGAUUCUGGUGAAUCUGUGAAUUCUGCUGUAUAUCAC [C62U U80A],0.3
16,UAACAGGGGGCCACAGCAGAAGCGUUCACGUCGCAGCCCCUGUCAGAUUCUGGUGAAUCUGAGAAUUCUGCCGUAUAUCUC [C62A U72C],0.24
17,UAACAGGGGGCCACAGCAGAAGCGUUCACGUCGCAGCCCCUGUCAGAUUCUGGUGAAUCUGAGAAUUCUGCAGUAUAUCUC [C62A U72A],0.17
18,UAACAGGGGGCCACAGCAGAAGCGUUCACGUCGCAGCCCCUGUCAGAUUCUGGUGAAUCUGAGAAUUCUGCGGUAUAUCUC [C62A U72G],0.19
19,UAACAGGGGGCCACAGCAGAAGCGUUCACGUCGCAGCCCCUGUCAGAUUCUGGUGAAUCUGUGAAUUCUGCCGUAUAUCUC [C62U U72C],0.29
20,UAACAGGGGGCCACAGCAGAAGCGUUCACGUCGCAGCCCCUGUCAGAUUCUGGUGAAUCUGUGAAUUCUGCAGUAUAUCUC [C62U U72A],0.4
21,UAACAGGGGGCCACAGCAGAAGCGUUCACGUCGCAGCCCCUGUCAGAUUCUGGUGAAUCUGUGAAUUCUGCGGUAUAUCUC [C62U U72G],0.29
22,UAACAGGGGGCCACAGCAGAAGCGUUCACGUCGCAGCCCCUGUCAGAUUCUGGUGAAUCUGUGAAUCCUGCUGUAUAUCUC [C62U U67C],0.31
23,UAACAGGGGGCCACAGCAGAAGCGUUCACGUCGCAGCCCCUGUCAGAUUCUGGUGAAUCUGUGAAUACUGCUGUAUAUCUC [C62U U67A],0.29

row,Variant,self-cleavage
1,UAACAGGGGGCCACAGCAGAAGCGUUCACGUCGCAGCCCCUGUCAGAUUCUGGUGAAUCUGGGAAUUCCGCUGUAUAUCUC [C62G U69C],0.22
2,UAACAGGGGGCCACAGCAGAAGCGUUCACGUCGCAGCCCCUGUCAGAUUCUGGUGAAUCUGGGAAUUCAGCUGUAUAUCUC [C62G U69A],0.15
3,UAACAGGGGGCCACAGCAGAAGCGUUCACGUCGCAGCCCCUGUCAGAUUCUGGUGAAUCUGUGAAAUCUGCUGUAUAUCUC [C62U U66A],0.18
4,UAACAGGGGGCCACAGCAGAAGCGUUCACGUCGCAGCCCCUGUCAGAUUCUGGUGAAUCUGUGAACUCUGCUGUAUAUCUC [C62U U66C],0.26
5,UAACAGGGGGCCACAGCAGAAGCGUUCACGUCGCAGCCCCUGUCAGAUUCUGGUGAAUCUGGGAAUUCUGCUGUAUAUCUC [C62G],0.3
6,UAACAGGGGGCCACAGCAGAAGCGUUCACGUCGCAGCCCCUGUCAGAUUCUGGUGAAUCUGUGAAUUCUGCUGUAUAUCUC [C62U],0.2
7,UAACAGGGGGCCACAGCAGAAGCGUUCACGUCGCAGCCCCUGUCAGAUUCUGGUGAAUCUGUGAUUUCUGCUGUAUAUCUC [C62U A65U],0.14
8,UAACAGGGGGCCACAGCAGAAGCGUUCACGUCGCAGCCCCUGUCAGAUUCUGGUGAAUCUGUGAGUUCUGCUGUAUAUCUC [C62U A65G],0.27
9,UAACAGGGGGCCACAGCAGAAGCGUUCACGUCGCAGCCCCUGUCAGAUUCUGGUGAAUCUGCACAUUCUGCUGUAUAUCUC [G63A A64C],0.42
10,UAACAGGGGGCCACAGCAGAAGCGUUCACGUCGCAGCCCCUGUCAGAUUCUGGUGAAUCUGUGAAUUCUGCUGGAUAUCUC [C62U U74G],0.19
11,UAACAGGGGGCCACAGCAGAAGCGUUCACGUCGCAGCCCCUGUCAGAUUCUGGUGAAUCUGUGAAUUCUGCUGAAUAUCUC [C62U U74A],0.32
12,UAACAGGGGGCCACAGCAGAAGCGUUCACGUCGCAGCCCCUGUCAGAUUCUGGUGAAUCUGGGAAUUCUGCAGUAUAUCUC [C62G U72A],0.27
13,UAACAGGGGGCCACAGCAGAAGCGUUCACGUCGCAGCCCCUGUCAGAUUCUGGUGAAUCUGGGAAUUCUGCCGUAUAUCUC [C62G U72C],0.26
14,UAACAGGGGGCCACAGCAGAAGCGUUCACGUCGCAGCCCCUGUCAGAUUCUGGUGAAUCUGUGAAUUCUGUUGUAUAUCUC [C62U C71U],0.22
15,UAACAGGGGGCCACAGCAGAAGCGUUCACGUCGCAGCCCCUGUCAGAUUCUGGUGAAUCUGUGAAUUCUGAUGUAUAUCUC [C62U C71A],0.26
16,UAACAGGGGGCCACAGCAGAAGCGUUCACGUCGCAGCCCCUGUCAGAUUCUGGUGAAUCUGUGUAUUCUGCUGUAUAUCUC [C62U A64U],0.29
17,UAACAGGGGGCCACAGCAGAAGCGUUCACGUCGCAGCCCCUGUCAGAUUCUGGUGAAUCUGUGGAUUCUGCUGUAUAUCUC [C62U A64G],0.19
18,UAACAGGGGGCCACAGCAGAAGCGUUCACGUCGCAGCCCCUGUCAGAUUCUGGUGAAUCUGUGAAUUCUGCUGUAUAACUC [C62U U78A],0.28
19,UAACAGGGGGCCACAGCAGAAGCGUUCACGUCGCAGCCCCUGUCAGAUUCUGGUGAAUCUGUGAAUUCUGCUGUAUACCUC [C62U U78C],0.2
20,UAACAGGGGGCCACAGCAGAAGCGUUCACGUCGCAGCCCCUGUCAGAUUCUGGUGAAUCUGAGAAUUCUGCUGUAUGUCUC [C62A A77G],0.24
21,UAACAGGGGGCCACAGCAGAAGCGUUCACGUCGCAGCCCCUGUCAGAUUCUGGUGAAUCUGAGAAUUCUGCUGCAUAUCUC [C62A U74C],0.4
22,UAACAGGGGGCCACAGCAGAAGCGUUCACGUCGCAGCCCCUGUCAGAUUCUGGUGAAUCUGAGAAUUCUGCUGAAUAUCUC [C62A U74A],0.18
